*1 amine or outer side, *2 acyl side, *3 side chain or, on linkers, in order; H or OH if unused. Bridges are numbered along the chain shown (N, C = ends). Where no end group is shown, it is not given here. [ ]: non-standard residue; d: D form. PYA = propargyl-acid (alkyne used for click attachment); TATA = O=C(CC[*:1])N1CN(C(=O)CC[*:2])CN(C(=O)CC[*:3])C1; tBuAla = CC(C)(C)C[C@H](N)C(=O)O; Nle = CCCC[C@H](N)C(=O)O
Tests used:
[1] = target: T1, human CD137 (human, UniProt Q07011 24-255); assay: flow cytometry, direct binding to activated human CD8+/CD137+ T cells
T1 construct: whole, on cells; Endogenous receptor on CD3-stimulated human PBMCs or purified CD8+ T cells; also called CD137 receptor; 4-1BB

[2] = target: T1, human CD137; assay: flow cytometry on CD3-stimulated human PBMCs, apparent affinity (kd,app), CD8+ CD137+ population, donor 214026
Experimental: (§1) Plates were then incubated for 1 hour at 37° C., 5% CO₂. Post-incubation, plate was centrifuged at 500 rpm for 5 minutes and supernatant discarded. Samples were then washed once in 200 μL of 1× phosphate buffer saline (PBS; Gibco™ 10-010-023) at 500 rpm for 5 minutes. Cells were resuspended in 200 μL of PBS and transferred to a 96-well V-bottom polypropylene plate (Greiner Bio-One 651201). Samples were then centrifuged at 500 rpm for 5 minutes and supernatant was discarded.
(§2) Preparation of samples for flow cytometry: Zombie Violet™ Fixable Viability Dye (BioLegend® 423113) was prepared as a 1:1000 dilution in PBS and 100 μL of viability dye was added to each well and incubated in the dark at 4° C. for 30 minutes. Subsequently, wells were washed with 100 μL of PBS for 5 minutes at 500 rpm and supernatant was discarded. […] Cells resuspended in 200 μL of stain buffer were kept at 4° C. and in the dark until read by BD FACSCelesta™ flow cytometer and FCS files were analyzed in FlowJo™.
(§3) Cells were gated on lymphocytes→singlets→live→CD4+ or CD8+→CD137+/− and the geometric mean of Alexa Fluor® 488 (conjugated to BCY15416) was calculated from the CD137+ and CD137− populations shown below. […] Calculated binding affinity (kd,app) for each donor appear in Table 5. […]

[3] = target: T1, human CD137; assay: flow cytometry on CD3-stimulated human PBMCs, apparent affinity (kd,app), CD4+ CD137+ population, donor 217071
Experimental: as §1, §2, §3

[4] = target: T1, human CD137; assay: flow cytometry on CD3-stimulated human PBMCs, apparent affinity (kd,app), CD8+ CD137+ population, donor 214047
Experimental: as §1, §2, §3

[5] = target: T1, human CD137; assay: flow cytometry on CD3-stimulated human PBMCs, apparent affinity (kd,app), CD8+ CD137+ population, donor 217071
Experimental: as §1, §2, §3

[6] = target: T1, human CD137; assay: flow cytometry on CD3-stimulated human PBMCs, apparent affinity (kd,app), CD4+ CD137+ population, donor 214026
Experimental: as §1, §2, §3

[7] = target: T1, human CD137; assay: flow cytometry on CD3-stimulated human PBMCs, apparent affinity (kd,app), CD4+ CD137+ population, donor 214047
Experimental: as §1, §2, §3

T1 sequence (Q07011 24-255): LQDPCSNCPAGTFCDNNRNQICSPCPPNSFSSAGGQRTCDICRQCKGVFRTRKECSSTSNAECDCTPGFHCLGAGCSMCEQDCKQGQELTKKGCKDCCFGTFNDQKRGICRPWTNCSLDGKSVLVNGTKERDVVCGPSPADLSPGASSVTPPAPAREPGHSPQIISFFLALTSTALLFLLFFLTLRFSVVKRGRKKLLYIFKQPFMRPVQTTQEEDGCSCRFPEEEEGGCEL

| Binder | binding result [1] | Kd [2] [nM] | Kd [3] [nM] | Kd [4] [nM] | Kd [5] [nM] | Kd [6] [nM] | Kd [7] [nM] |
| --- | --- | --- | --- | --- | --- | --- | --- |
| ACIEEGQYCFADPYXCX (N-terminal acetyl; Nle (norleucine) at position 12 of the core; C-terminal Dap(PYA) amide (CONH2); the three Cys cyclised on the TATA scaffold; joined through PYA to spacer SA (n = 10) on central hinge moiety B; Alexa Fluor 488 on the hinge without spacer (formula (II)), also called fluorescent CD137 multimer; fluorescent trimer) [BCY9932] | binds | – | – | – | – | – | – |
| CIEEGQYCFADPYMCAX (N-terminal acetyl; C-terminal Pra (propargylglycine) amide (CONH2); the three Cys cyclised on the TATA scaffold; joined through Pra to spacer SA (n = 23) on central hinge moiety C; fluorescein on the hinge without spacer (formula (II)), also called fluorescent CD137 multimer; fluorescent CD137 dimer) [BCY7340] | binds | – | – | – | – | – | – |
| Ac-C[tBuAla]PE[dK](PYA)PYCFADPY[Nle]CA (linker 1-8-15 via TATA; also: dimer: joined through PYA directly to central hinge moiety D, Alexa Fluor 488 on the hinge without spacer (formula (II)), also called fluorescently labelled CD137 dimer; CD137 dimer) [BCY15416] | – | 0.114 | 0.13 | 0.118 | 0.13 | 0.875 | 0.144 |
